Measurements: the FLAb antibody collection (doi:10.7554/elife.23156)

B1: scFv; the commonest letter at each place (parent)
chain 1: EVKLDETGGGLVQPGRPMKLSCVASGFTFSDYWMNWVRQSPEKGLEWVAQIRNKPYNYETYYSDSVKGRFTISRDDSKSSVYLQMNNLRVEDMGIYYCTGSYYGMDYWGQGTSVTVS
chain 2: DVVMTQTPLSLPVSLGDQASISCRSSQSLVHSNGNTYLRWYLQKPGQSPKVLIYKVSNRFSGVPDRFSGSGSGTDFTLKISRVEAEDLGVYFCSQSTHVPWTFGGGTKLEIK

What was measured:
fluorescein = variants of: B1; test: Kd (Tite-Seq); conditions: with fluorescein; format: scFv 4-4-20, heavy + light
[1] = variants of: B1; test: yeast surface expression (ratio to wild type); higher = more expressed; conditions: format: scFv 4-4-20, heavy + light

| Variant | Kd (fluorescein) [nM] | yeast surface expression [1] |
| --- | --- | --- |
| chain 1 EVKLDETGGGLVQPGRPMKLSCVASGFTFHDYCMNWVRQSPEKGLEWVAQIRNKPYNYETYYSDSVKGRFTISRDDSKSSVYLQMNNLRVEDMGIYYCTGSYYGMDYWGQGTSVTVS chain 2 DVVMTQTPLSLPVSLGDQASISCRSSQSLVHSNGNTYLRWYLQKPGQSPKVLIYKVSNRFSGVPDRFSGSGSGTDFTLKISRVEAEDLGVYFCSQSTHVPWTFGGGTKLEIK [chain 1 S30H W33C] | ≥ 10000 | 0.61 |
| chain 1 EVKLDETGGGLVQPGRPMKLSCVASGFTFHDYWMNFVRQSPEKGLEWVAQIRNKPYNYETYYSDSVKGRFTISRDDSKSSVYLQMNNLRVEDMGIYYCTGSYYGMDYWGQGTSVTVS chain 2 DVVMTQTPLSLPVSLGDQASISCRSSQSLVHSNGNTYLRWYLQKPGQSPKVLIYKVSNRFSGVPDRFSGSGSGTDFTLKISRVEAEDLGVYFCSQSTHVPWTFGGGTKLEIK [chain 1 S30H W36F] | 4 | 0.728 |
| chain 1 EVKLDETGGGLVQPGRPMKLSCVASGFTFHDYWMNMVRQSPEKGLEWVAQIRNKPYNYETYYSDSVKGRFTISRDDSKSSVYLQMNNLRVEDMGIYYCTGSYYGMDYWGQGTSVTVS chain 2 DVVMTQTPLSLPVSLGDQASISCRSSQSLVHSNGNTYLRWYLQKPGQSPKVLIYKVSNRFSGVPDRFSGSGSGTDFTLKISRVEAEDLGVYFCSQSTHVPWTFGGGTKLEIK [chain 1 S30H W36M] | 2340 | 0.564 |
| chain 1 EVKLDETGGGLVQPGRPMKLSCVASGFTFHDCWMNWVRQSPEKGLEWVAQIRNKPYNYETYYSDSVKGRFTISRDDSKSSVYLQMNNLRVEDMGIYYCTGSYYGMDYWGQGTSVTVS chain 2 DVVMTQTPLSLPVSLGDQASISCRSSQSLVHSNGNTYLRWYLQKPGQSPKVLIYKVSNRFSGVPDRFSGSGSGTDFTLKISRVEAEDLGVYFCSQSTHVPWTFGGGTKLEIK [chain 1 S30H Y32C] | 9500 | 0.722 |

Second part, led by results:

| Kd (fluorescein) [nM] | Variant | yeast surface expression [1] |
| --- | --- | --- |
| 18.9 | chain 1 EVKLDETGGGLVQPGRPMKLSCVASGFTFHDRWMNWQRQSPEKGLEWVAQIRNKPYNYETYYSDSVKGRFTISRDDSKSSVYLQMNNLRVEDMGIYYCTGSYYGMDYWGQGTSVTVS chain 2 DVVMTQTPLSLPVSLGDQASISCRSSQSLVHSNGNTYLRWYLQKPGQSPKVLIYKVSNRFSGVPDRFSGSGSGTDFTLKISRVEAEDLGVYFCSQSTHVPWTFGGGTKLEIK [chain 1 S30H Y32R V37Q] | 1.99 |
| ≥ 10000 | chain 1 EVKLDETGGGLVQPGRPMKLSCVASGFTFHDTWMNWVRQSPEKGLEWVAQIRNKPYNYETYYSDSVKGRFTISRDDSKSSVYLQMNNLRVEDMGIYYCTGSYYGMDYWGQGTSVTVS chain 2 DVVMTQTPLSLPVSLGDQASISCRSSQSLVHSNGNTYLRWYLQKPGQSPKVLIYKVSNRFSGVPDRFSGSGSGTDFTLKISRVEAEDLGVYFCSQSTHVPWTFGGGTKLEIK [chain 1 S30H Y32T] | 0.891 |
